From patent KR20200059381A

Key:
[1] = target: 구제역 바이러스 혈청형 O 배양액(cal1~cal4) (Foot-and-mouth disease virus serotype O); assay: sandwich ELISA, cal2, 1E58 coat 4 ug/ml, 1E58-HRP 0.6 ug/ml, 450 nm
[2] = target: 구제역 바이러스 혈청형 O 배양액(cal1~cal4) (Foot-and-mouth disease virus serotype O); assay: sandwich ELISA, cal4, 1E58 coat 4 ug/ml, 1E58-HRP 0.2 ug/ml, 450 nm
[3] = target: 구제역 바이러스 혈청형 O 배양액(cal1~cal4) (Foot-and-mouth disease virus serotype O); assay: sandwich ELISA, cal2, 1E58 coat 8 ug/ml, 1E58-HRP 0.4 ug/ml, 450 nm
[4] = target: 구제역 바이러스 혈청형 O 배양액(cal1~cal4) (Foot-and-mouth disease virus serotype O); assay: sandwich ELISA, cal3, 1E58 coat 4 ug/ml, 1E58-HRP 0.8 ug/ml, 450 nm
[5] = target: 불활화 FMDV 혈청형 O (Foot-and-mouth disease virus serotype O)
[6] = target: 구제역 바이러스 혈청형 O 배양액(cal1~cal4) (Foot-and-mouth disease virus serotype O); assay: sandwich ELISA, cal1, 1E58 coat 8 ug/ml, 1E58-HRP 0.8 ug/ml, 450 nm
[7] = target: 구제역 바이러스 혈청형 O 배양액(cal1~cal4) (Foot-and-mouth disease virus serotype O); assay: sandwich ELISA, cal4, 1E58 coat 2 ug/ml, 1E58-HRP 0.4 ug/ml, 450 nm
[8] = target: 불활화 FMDV 혈청형 A (Foot-and-mouth disease virus serotype A)
[9] = target: 불활화 FMDV 혈청형 Asia1 (Foot-and-mouth disease virus serotype Asia1)
[10] = target: 불활화 FMDV 혈청형 O (Foot-and-mouth disease virus serotype O); remark: listed apart in the source
[11] = target: 구제역 바이러스 혈청형 O 배양액(cal1~cal4) (Foot-and-mouth disease virus serotype O); assay: sandwich ELISA, cal2, 1E58 coat 2 ug/ml, 1E58-HRP 0.6 ug/ml, 450 nm
[12] = target: 구제역 바이러스 혈청형 O 배양액(cal1~cal4) (Foot-and-mouth disease virus serotype O); assay: sandwich ELISA, cal4, 1E58 coat 8 ug/ml, 1E58-HRP 0.2 ug/ml, 450 nm
[13] = target: 구제역 바이러스 혈청형 O 배양액(cal1~cal4) (Foot-and-mouth disease virus serotype O); assay: sandwich ELISA, cal1, 1E58 coat 2 ug/ml, 1E58-HRP 0.6 ug/ml, 450 nm
[14] = target: 구제역 바이러스 혈청형 O 배양액(cal1~cal4) (Foot-and-mouth disease virus serotype O); assay: sandwich ELISA, cal4, 1E58 coat 1 ug/ml, 1E58-HRP 0.6 ug/ml, 450 nm
[15] = target: 구제역 바이러스 혈청형 O 배양액(cal1~cal4) (Foot-and-mouth disease virus serotype O); assay: sandwich ELISA, cal3, 1E58 coat 2 ug/ml, 1E58-HRP 0.6 ug/ml, 450 nm
[16] = target: 구제역 바이러스 혈청형 O 배양액(cal1~cal4) (Foot-and-mouth disease virus serotype O); assay: sandwich ELISA, cal2, 1E58 coat 1 ug/ml, 1E58-HRP 0.6 ug/ml, 450 nm
[17] = target: 구제역 바이러스 혈청형 O 배양액(cal1~cal4) (Foot-and-mouth disease virus serotype O); assay: sandwich ELISA, cal2, 1E58 coat 8 ug/ml, 1E58-HRP 0.8 ug/ml, 450 nm
[18] = target: 구제역 바이러스 혈청형 O 배양액(cal1~cal4) (Foot-and-mouth disease virus serotype O); assay: sandwich ELISA, cal3, 1E58 coat 8 ug/ml, 1E58-HRP 0.4 ug/ml, 450 nm
[19] = target: 구제역 바이러스 혈청형 O 배양액(cal1~cal4) (Foot-and-mouth disease virus serotype O); assay: sandwich ELISA, cal1, 1E58 coat 1 ug/ml, 1E58-HRP 0.8 ug/ml, 450 nm
[20] = target: 구제역 바이러스 혈청형 O 배양액(cal1~cal4) (Foot-and-mouth disease virus serotype O); assay: sandwich ELISA, cal2, 1E58 coat 8 ug/ml, 1E58-HRP 0.6 ug/ml, 450 nm
[21] = target: 구제역 바이러스 혈청형 O 배양액(cal1~cal4) (Foot-and-mouth disease virus serotype O); assay: sandwich ELISA, cal1, 1E58 coat 1 ug/ml, 1E58-HRP 0.4 ug/ml, 450 nm
[22] = target: FMDV 혈청형 A 포천주 (Foot-and-mouth disease virus serotype A); assay: sandwich ELISA, 1E58 coat 4 ug/ml, 1E58-HRP 0.3 ug/ml, virus culture fluid
[23] = target: FMDV 혈청형 A Iran05 (Foot-and-mouth disease virus serotype A); assay: as above
[24] = target: FMDV 혈청형 O Primorsky (Foot-and-mouth disease virus serotype O); assay: as above
[25] = target: FMDV 혈청형 A A22 Iraq (Foot-and-mouth disease virus serotype A); assay: as above
[26] = target: FMDV 혈청형 O 김제 (Foot-and-mouth disease virus serotype O); assay: as above
[27] = target: FMDV 혈청형 O Campos (Foot-and-mouth disease virus serotype O); assay: as above
[28] = target: 구제역 바이러스 혈청형 O 배양액(cal1~cal4) (Foot-and-mouth disease virus serotype O); assay: sandwich ELISA, cal4, 1E58 coat 1 ug/ml, 1E58-HRP 0.8 ug/ml, 450 nm
[29] = target: 구제역 바이러스 혈청형 O 배양액(cal1~cal4) (Foot-and-mouth disease virus serotype O); assay: sandwich ELISA, cal2, 1E58 coat 1 ug/ml, 1E58-HRP 0.2 ug/ml, 450 nm
[30] = target: 구제역 바이러스 혈청형 O 배양액(cal1~cal4) (Foot-and-mouth disease virus serotype O); assay: sandwich ELISA, cal1, 1E58 coat 2 ug/ml, 1E58-HRP 0.2 ug/ml, 450 nm
[31] = target: 구제역 바이러스 혈청형 O 배양액(cal1~cal4) (Foot-and-mouth disease virus serotype O); assay: sandwich ELISA, cal4, 1E58 coat 8 ug/ml, 1E58-HRP 0.4 ug/ml, 450 nm

B1: 단클론항체 1E58 (antibody, V domains shown)
VH: EFQLQQSRPELAKPGASVKISCKTSGHTFTTYTMHWVKQSHVKSLEWIGCFNPNNGGATYNQKFKGKATLTMDKSSNTAYVEVRSLTSDDSAVYYCAYGNYVNFDYWGQGTTLTVSS
VL: DIVLTQSPASLAVSLGQRATISYRASKSVSTSGYSYMHWNQQKPGQPPRLLIYLVSNLESGVPARFSGSGSGTDFTLNIHPVEEEDAATYYCQHIRELTRSEGGPSWKN
O.D [1]: 3.47 O.D
O.D [2]: 0.63 O.D
O.D [3]: 1.85 O.D
O.D [4]: 2.65 O.D
O.D (450nm) [5]: 1.09 O.D
O.D [6]: 4 O.D
O.D [7]: 0.56 O.D
ELISA screening plate (O.D) [8]: 2.13 O.D
ELISA screening plate (O.D) [9]: 1.93 O.D
ELISA screening plate (O.D) [10]: 2.02 O.D
O.D [11]: 3.42 O.D
O.D [12]: 0.27 O.D
O.D [13]: 3.68 O.D
O.D [14]: 0.74 O.D
O.D [15]: 1.89 O.D
O.D [16]: 1.55 O.D
O.D [17]: 4 O.D
O.D [18]: 0.96 O.D
O.D [19]: 3.21 O.D
O.D [20]: 1.84 O.D
O.D [21]: 2.43 O.D
O.D (450nm) [22]: 3.87 O.D
O.D (450nm) [23]: 4 O.D
O.D (450nm) [24]: 4 O.D
O.D (450nm) [25]: 3.79 O.D
O.D (450nm) [26]: 4 O.D
O.D (450nm) [27]: 3.96 O.D
O.D [28]: 1.07 O.D
O.D [29]: 1.06 O.D
O.D [30]: 3.12 O.D
O.D [31]: 0.39 O.D
